Experimental data from the DeepSol protein solubility set.

Experiment: soluble on expression in E. coli; label from the status in PepcDB or PDB records

MKKIITLFGACALAFSMANADVNLYGPGGPHTALKDIANKYSEKTGVKVNVNFGPQATWFEKAKKDADILFGASDQSALAIASDFGKDFNVSKIKPLYFREAIILTQKGNPLKIKGLKDLANKKVRIVVPEGAGKSNTSGTGVWEDMIGRTQDIKTIQNFRNNIVAFVPNSGSARKLFAQDQADAWITWIDWSKSNPDIGTAVAIEKDLVVYRTFNVIAKEGASKETQDFIAYLSSKEAKEIFKKYGWREH
soluble on expression in E. coli: soluble

MAHHHHHHMQEFSTYSLFSRKNETVSGMDENFDNHPENYFKEEYYYDENDDMEVKVKKIGVTLKKFEPLKNGNVSETIKLIHLGNKDKKHIEAINNDIQIIKQELQAIYNELMNYTNGNKNIQQIFQQNILENDVLNQETERQTRSRGGG
soluble on expression in E. coli: soluble

SEAIQTLLDRKLPDEELEQINQACLSVKGVLGVHQLRTRMSGPTRFIQLHLELDDNLRLIEAHYIADKVEDNLLALFPEADVLIHQDPLSVVFGPEKEQKAQDW
soluble on expression in E. coli: not soluble

MSYLAKFTSPNQMKKLIKTVVADLLGSDEDLKTSSCHVISNLAANSQEMLKGYTSQIVPYVLLEKCREVPKEDEIAREKQEKWNDVWAELVPTTSSAVRLYKEEILNLAIDLVTNNEVWAVRKQAAVMIRVTFENLKKDAGIDVAKKSALSLRDTLNGRIWDGKIEILRALTSAFEAGGADFKRNMSATEIEDMETVLRREASKKNMEYAGAGLATIATWAVISESVESATWLAKKIDENVTKLIGARNDADSDDNMDGLSNLEKEIRASKLVTLNLTALAISLPAFNNAEEAESTLSQIAGYVKSTVIAWKSKQFFFNELAKSLEKWTPREPVAAGKLIDNILEQADELCAQQKKTVATDALQVVLRIQERSDRFGVDRNSVLDSVNRGVAGSETGLGSRFEAKMDTD
soluble on expression in E. coli: not soluble

MGSDKIHHHHHHMAETAPAPYFSEIARGPDQVEAHWLTTQDGQRIRAGLWRSHGPSAGTILLFPGRTEYIEKYGPLAIDLTDRGFDVLTVDWRGQGLADRSLSDGRLGHVAEFGAFQLDVAALVAHAEALNLPRPWYLLGHSMGGAIGLRALHEGLPVAACAFTAPMWAIRIPFALRPAARLLARFGTALGVSEKLVPTTTIEQYVQVTPFEGNTLTNDPEMYAFLQMQMTQHPELALGGPTVQWLSQAMLECADLRARPSPDVPCVTFLGENEQIVATEAIHDRMARWPSGKLEMIPDAQHEILMEIPQTRRQTCAILTAHFKKHV
soluble on expression in E. coli: not soluble

MGGGERYNIPAPQSRNVSKNQQQLNRQKTKEQNSQMKIVHKKKERGHGYNSSAAAWQAMQNGGKNKNFPNNQSWNSSLSGPRLLFKSQANQNYAGAKFSEPPSPSVLPKPPSHWVPVSFNPSDKEIMTFQLKTLLKVQV
soluble on expression in E. coli: not soluble

MKPPSSIQTSEFDSSDEEPIEDEQTPIHISWLSLSRVNCSQFLGLCALPGCKFKDVRRNVQKDTEELKSCGIQDIFVFCTRGELSKYRVPNLLDLYQQCGIITHHHPIADGGTPDIASCCEIMEELTTCLKNYRKTLIHSYGGLGRSCLVAACLLLYLSDTISPEQAIDSLRDLRGSGAIQTIKQYNYLHEFRDKLAAHLSSRDSQSRSVSR
soluble on expression in E. coli: soluble

MSKDAVSILFLGIDDNEGRRKNGQTTEHSRTDSMILSTFSPEKRQIRLLSIPRDTISYIPKVGYYDKITHAHAYGGPVAAMDSVEATLNVPVDYYVRVNMDAFVEAVDELGGIYYDVPYDLNEPNTDDSGRIKIKKGYQKLNGDEALAVARTRHHDSDLKRGERQMDLIKLLFQKAKSLDSYDKLDDLVQIVGKNAKHNLTSSEIKSLASMYLSDDIEFKKSQLKGKDDYLQNIYYYNPSVSSIMKYSNILRSDLGLSKITDKDEFLDQRVIKHYGTLIPLTPLDQSLLKNNQKDSSSSDDNNDDSTNSDNNNNIQSSEENSSNSNEGIDQSSQGSTQSDNYNQTNSSNSFNNNQDQMNQIYLEHHHHHH
soluble on expression in E. coli: soluble

MGSDKIHHHHHHMSYTTNKQPQGYPYFVTSKLREDMIGELVAINDYSFIISNSNIKEINDVLYHIRQEEHNHYGMLLELLRKYDPMEMDAYLRVIAHTTLTPVKEYLTVNSGITDKLLLNYLREGAKGELEAIILYEQHLAEIPYSDIRETLQKIVYEEKEHLEELTLVLINYDKDKYGSIKK
soluble on expression in E. coli: not soluble

MSLKATSSDDKVTFHALNGDVKVPKNPKRIAVQNYPDEVASLGANVVGTDSWAFPNTFLSKDQKKNMVDLGAPKFNMEKLIAQNPDLIITVDKDQVADYQKVAPTVLVNYKDLSGMNKSLDYFAKLLNREDEKASFLKNFKKEADKQKEKLAKVDVKPAKNTISLLELQGDKVYAFGDNFARGGQALTTGLGFKESSKMAELSKGVGYAEVNTESLGEFDADYIFIDFADKDKEQYAALKNNPAWQNLKAVKEGHVITMDYDKVYFFGGPTAAKEELSLYTDAIIKATKEGHHHHHH
soluble on expression in E. coli: soluble

MGSDKIHHHHHHACSGQLDTIQEYLDAGETIYAAKMDSVDIRPGYNRVEVTGLLKYGMDTERCVIHWTPDNDSLVVPVKRIDPVDTFRVFIENLPEGTYQFEIVTYNKSGYRSISTSKGSKTYGDRYISSLRVRSLLSTEVEGENLLLNFSSEMAEALATKVFYLNSAGEKQEQEVARGDNQIKITDWKPRGAYEVKTYYIPEVNAVDTFSVSSTGVFPEKIVEMDKSTFREIILDNDIRLNAWGGALWKAWDNAYENTNYAHSDNTNPIVFPAWFTFDLGEKALLKRFDLFSVVRDDLNYNGGNMKSWEIWGREDEPANSSWDGWTKLITCNSFKPSGKPVGENTDEDNSYIAKGEKFDFPSGIPEVRYIRIKVLDSWSGQGYVQFSEFTFYKSE
soluble on expression in E. coli: not soluble

MQEQLEKMFFLSAEFVEAVDARGMTEREKNVFFDTELFCKRYVKEVRPGEIGCTLSHQKCYRKLVESRDKYALILEDDIVIRHNIDTLVPEIEKLLNTDEPRVILLSGWYWYLGTKTIKQHYCLARVYDAFLTHAYIINREAASLLIEQRPFITADDWFYIRKKGVKLYAVLPHLLDQDWSGEYPTSINQEEKKRCPGLWKRKIEICFHSLLLKFLYIIKRFEKALEHHHHHH
soluble on expression in E. coli: not soluble

MSPIPTTAETRKINEAAELMVNFWMSFACVEKEKEQMASIFEKMNGLFAAPSTTSTASLFGKYEGLFETTEVATEDFNTLWWNYPAQPSFPQLPVFVRSPIDSIKIYGAIQHDFGMSEDESVQYPSPISPSSDSSSETITHVSPGYLLQEVFLQRAVIEEQKKIIDGFHEIQKLNKKLAALHNNFTY
soluble on expression in E. coli: not soluble

MGSDKIHHHHHHVSLSFDFSPDFNPLAARMRPASVEEYIGQSHLLGEGKPLRQALLAGKVHSMLLWGPPGTGKTTLAELVARYANAHVERISAVTSGVKEIRAAIEQAKNVAQSRGQRTLLFVDEVHRFNKSQQDAFLPFIEDGTVIFIGATTENPSFEVNNALLSRCRVYLIKRLEDDAIGQILAQANSDEARGLGKRGLLLKAELKSAIARLCDGDARKALNLLELMSDLLPDGGEYNLELLSEVAGHQAAGYDKNGDQYYDLISAVHKSIRGSAPDAALYWFCRILEGGGDPLYVARRLLAIASEDIGNADPNAMTVALNAWDCFHRVGPAEGERAIAQAVIYLASAPKSNAVYTAFKAARVLARETGNAPVPNHLRNAPTKLMSELGVGEGYRYAHDEDGAFAAGENYFPEVLQHSRIYQPTARGFEKRIRDKLAHLDALNQQSGRKRYE
soluble on expression in E. coli: not soluble

TPTVDHVLLNIALNLSSNRSHEQQYQNLIDGVAQVFPCDASCLFIFDEDGFLTPVAVKGLSSSVLGRRYFPKAHPRLDAIIHSREPVRFDADCSLPDPFDGTLLTEDQCIDVHDCMGFSLYVEGQLVGALTMDALTVGAFDDIDPVAIETFAALTAATLRNIAQLKALKAQNQKQKSVTQTLIQQARSQHG
soluble on expression in E. coli: not soluble

MDFYYLPGSAPCRAVQMTAAAVGVELNLKLTNLMAGEHMKPEFLKINPQHCIPTLVDNGFALWESRAICTYLAEKYGKDDKLYPKDPQKRAVVNQRLYFDMGTLYQRFADYYYPQIFAKQPANAENEKKMKDAVDFLNTFLDGHKYVAGDSLTIADLTVLATVSTYDVAGFELAKYPHVAAWYERTRKEAPGAAINEAGIEEFRKYFEK
soluble on expression in E. coli: soluble

YATPDNMLSRFGEQDLTLLTEREDSVPGEINLALLEQALSDASAEIDGYIAGRYVLPLTTVPAVLERNCCDIARYFLYGDKAPEQVEKRYAAVVKFLTAVSKGDISLGLATTGETADQSELVISIESAGSVFGRKSAKGF
soluble on expression in E. coli: not soluble

GTTVHCDYLNRPHKSIHRRRTDPMVTLSSILESIINDMRDLPNTYPFHTPVNAKVVKDYYKIITRPMDLQTLRENVRKRLYPSREEFREHLELIVKNSATYNGPKHSLTQISQSMLDLCDEKLKEKEDKLARLEKAINPLLDDDDQVAFSFILDNIVTQKMMAVPDSWPFHHPVNKKFVPDYYKVIVNPMDLETIRKNISKHKYQSRESFLDDVNLILANSVKYNGPESQYTKTAQEIVNVCYQTLTEYDEHLTQLEKDICTAKEAALEEAELESLDPMT
soluble on expression in E. coli: soluble

GSHPLGDTSDASKLSSDYSLPDLINTRKVPNNWQTGEQASLEEGRIVLTSNQNSKGSLWLKQGFDLKDSFTMEWTFRSVGYSGQTDGGISFWFVQDSNIPRDKQLYNGPVNYDGLQLLVDNNGPLGPTLRGQLNDGQKPVDKTKIYDQSFASCLMGYQDSSVPSTIRVTYDLEDDNLLKVQVDNKVCFQTRKVRFPSGSYRIGVTAQNGAVNNNAESFEIFKMQFFNGVIEDSLIPNVNAMGQPKLITKYIDQQTG
soluble on expression in E. coli: soluble

KQSKLTLMSESLRNDGRIWVPKKLEDAKALQAGTKKPTDIPDADRDFYLERRYPAFGNLVPRDVASRAAKERCDAGFGVNNTGLAVFLDFKYAIDRLGEDVVRARYGNLFDMYEEITDENPYKTPMMIFPA
soluble on expression in E. coli: soluble

MPDLTKARCPCRGCNKVANNAEEVEELFGLRNMGDGTIRVQSYCRECRGLHCEASNPKCNHHA
soluble on expression in E. coli: not soluble

MNEFMEPLDRISAETLGHYERNAEAFFEGTRDHDVSQNIAALLSHIRTEPPFTVLDFGCGPGRDLKAFTELGHRAVGLDGAFRFVEMARDYSGCEVWHQDFLKLDLPEEHFDGIFANATLFHVPSRELPRVLGELRAALKPEGVLFASNPRGRNEEGWNRGRYGVYHDLDTWRRFLTSAGFLELEHYYRPAGLPRDQQPWLASVWRRTLEHHHHHH
soluble on expression in E. coli: soluble

GSSGSSGGEIIEGCRLPVLRRNQDNEDEWPLAEILSVKDISGRKLFYVHYIDFNRRLDEWVTHERLDLKKIQFPKKEAKTPSGPSSG
soluble on expression in E. coli: soluble

MNMTKNTMGTKLPRKLEQKMAVVGEQIKLARLRRNLSVAQVAERATCSPLTVSRIEKGAPTVAIGIYLRVLYALQLDDDILWLAKEDKLGKTLQDLSLKTRERASKKE
soluble on expression in E. coli: not soluble

MPEDILVDIKRDYVLSKLRDNERIDGRGFDEFRKVEIIPNVIEKAEGSALVKLGDTQVVVGVKMQPGEPYPDTPDRGVIIVNAELVPLASPTFEPGPPDENSIELARVVDRGIRESEAVDLSKLVIEEGEKVWIVFVDIHALDDDGNLLDASALAAIAALMNTKVPAERFDLGEDYLLPVRDLPVSVTSLIVGNKYLVDPSREEMSVGDTTLTITTDKDDNVVAMQKSGGYLLDEKLFDELLDVSINCARKLREKFKEI
soluble on expression in E. coli: soluble

LYWGDGQVWFDLPDKVTTHDSQLVGNLTELLKSVEHSFVLISPYFIPTEAGTKALTNAAKRGVDITIVTNSLASNDVFAVHGWYAKYREDLLESGIKLWEVKSSAKLKSKWSLTGSSRASLHAKAMTIDDKTLFVGSMNWDPRSAALNTEMAVVIEQPEYVQAFLAKLPSQLKDNAYRLTLRDGDIVWTNTKTGEEYDSEPEAGVFRRLGAWFSGILPIEDQL
soluble on expression in E. coli: not soluble

MKRMLFIFVSSFLLIALAACAQGKETKSELDYDQTKKMIVDILKTDQGKKAIQDVLTDEKMKQALILDETVVKKTIEDAMVSDKGQQFWEKLFKDPEFSSKFAKSMGKEQTQLMKTLLKDPEYQAGVIEIMKNPEVEKMMLQTMKSKEYRQYLQQVLTETAESPLFQAKMIDIISKGVQKAEKGGSGKKEAGGDGGSQGEKKEEQ
soluble on expression in E. coli: not soluble
